Laboratory results reported in patent US20240148892A1.

Key:
[1] = molecular target: human full-length B7H3 expressed on MCF-7 cells (human) (UniProt Q5ZPR3); assay: cell-based or functional assay
[2] = molecular target: cynomolgus monkey B7H3 on transfected FlpinCHO cells (cynomolgus monkey); assay: flow cytometry (FACS) on FlpinCHO cells transfected with cynomolgus monkey B7H3; negative control
[3] = molecular target: human full-length B7H3 expressed on MCF-7 cells (human) (UniProt Q5ZPR3); assay: flow cytometry (FACS) on MCF-7 cells expressing human full-length B7H3; negative control

human full-length B7H3 expressed on MCF-7 cells (human), sequence (Q5ZPR3 29-534 limits assumed): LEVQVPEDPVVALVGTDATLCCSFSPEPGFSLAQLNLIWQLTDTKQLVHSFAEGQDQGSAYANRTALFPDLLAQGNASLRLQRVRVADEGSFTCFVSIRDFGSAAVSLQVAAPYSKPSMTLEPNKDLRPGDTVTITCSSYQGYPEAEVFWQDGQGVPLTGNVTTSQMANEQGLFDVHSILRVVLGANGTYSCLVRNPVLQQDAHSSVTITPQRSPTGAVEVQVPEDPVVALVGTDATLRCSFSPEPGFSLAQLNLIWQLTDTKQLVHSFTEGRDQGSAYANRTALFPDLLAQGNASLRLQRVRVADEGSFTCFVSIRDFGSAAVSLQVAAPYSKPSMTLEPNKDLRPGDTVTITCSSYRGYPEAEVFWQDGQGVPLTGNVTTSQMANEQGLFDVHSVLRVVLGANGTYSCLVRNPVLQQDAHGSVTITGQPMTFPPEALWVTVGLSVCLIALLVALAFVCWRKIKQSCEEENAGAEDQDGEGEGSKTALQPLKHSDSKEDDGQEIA

hIgG1 isotype (antibody)
Antibody internalization Maximum MFI, MCF-7 cells, high-content imaging (negative control) [1]: 21 MFI
Maximum MFI [2]: 6.67 MFI
Maximum MFI [3]: 47.8 MFI
